B1: CPOX (parent)
chain: HAPTIHFNYRYFEVEEADGNKQWW
B2: DFFB (parent)
chain: KLNCDPSRIYKPQTRLKRKQPVRK

Variants of: B1
Assay: protein stability index of a GFP-peptide fusion (GPS, HEK-293T) (PSI 1-6); higher = more stable
Conditions: c terminus: a fixed tail appended
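Also: lentivirally expressed fusions sorted by FACS into six bins by GFP to DsRed ratio, PSI derived from sequencing read proportions per bin multiplied by bin number.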

Protein stability index, by site and new letter:
A2: Y 2.33; M 2.16; E 3.45; C 1.99; I 1.73; F 2.26; S 2.78; L 2.11; G 2.43; D 2.94; K 2.38; P 2.34; H 2.44; R 2.73; N 2.46; W 2.02; V 2.85; T 2.5; Q 3.31
H1: K 2.37; T 2.91; M 2.15; V 2.69; G 3.62; D 1.84; A 2.46; L 1.92; R 3.24; Q 2.96; P 2.62; N 2.54; E 2.42; S 2.89; I 2.05; C 2.15; W 2.62
T4: D 2.96; A 2.38; E 2.29; C 2.01
P3: F 2.6; H 2.2; Y 2.39; A 1.97; C 1.62; Q 1.65; W 1.17; K 1.93; D 2.67; E 1.99; L 2.49; G 2.85; R 2.69; V 1.8; S 1.99; M 1.97; T 2.38; N 2.09; I 2.92

Variants of: B2
Assay: as above
Conditions: c terminus: a fixed tail appended

Protein stability index: each site, then its substitutions
K11: I 3.16; F 3.09; G 3.17; S 2.89; A 4.01; Q 2.07; N 2.98; M 3.02; Y 3.94; T 3.2; H 2.94; V 3.95; C 3.9; E 4.3; P 3.15; L 2.99; R 3.53; D 3.21; W 3.3
L16: W 3; M 3.23; S 3.6; K 3.07; D 2.92; F 2.8; A 3.34; V 3.88; I 3.67; T 4.05; P 3.83; R 3.48; C 2.95; H 3.9; N 3.85; E 4.44; Q 3.9; G 4.16; Y 3.77
R18: L 3.62; P 3.83; E 4.21; S 3.37; I 3.32; D 3.34; G 3.28; T 3.96; M 3.68; C 3.43; V 3.89; F 3.44; K 3.76; Q 3.4; Y 3.05; H 3.13; W 3.03; A 2.94; N 3.23
K17: R 3.18; T 3.14; W 3.19; Q 2.9; I 3.21; F 3.45; C 3.38; V 3.25; P 3; L 2.14; M 3.45; E 3.42; Y 3.68; N 3.21; H 2.55; A 2.98; D 2.17; G 4.14; S 3.35
P12: Y 2.79; E 4.24; Q 2.24; D 3.09; T 3.69; C 3.21; R 3.33; G 3.3; M 3.31; F 3.38; A 3.47; H 3.13; L 2.86; S 3.89; I 2.85; N 4.49; K 3.46; W 3.21
R23: T 3.77; C 3.21; W 2.59; V 3.25; S 3.49; A 3.39; K 3.01; Q 3.9; E 3.34; D 3.83; L 2.81; I 3.53; H 3.43; G 3.35; Y 3.48; P 3.84; M 3.1
K24: C 2.96; Y 3.11; H 3.15; S 4.02; T 4.04; Q 3.18; E 3.99; A 4.04; P 3.32; M 3.11; G 3.23; R 3.96; F 2.7; D 3.56; N 3.44; I 3.03; V 2.49; L 2.87
R15: H 3.59; Y 2.17; W 3.02; P 3.6; K 3.24; T 3.76; L 2.69; M 3.21; N 3.26; I 3.52; A 2.82; S 3.96; Q 2.67; F 3.25; D 3.09; G 3.58; C 3.24; E 3.68; V 3.49
Y10: F 2.58; M 3.38; I 3.6; Q 2.75; V 2.94; N 3.57; G 2.28; P 3.72; L 3.84; E 3.56; W 3.47; H 3.86; T 3.35; S 4.16; K 3.21; R 3.56
K19: D 3.53; I 3.18; L 3.14; R 3.9; G 2.63; T 3.52; Q 3.34; N 3.54; H 3.49; V 2.96; W 2.94; M 3.31; A 3.66; E 2.93; C 2.69; P 3.25; Y 2.89; S 2.78; F 1.86
Q13: N 3; H 4.35; E 4.16; A 4.01; P 3.76; Y 3.46; V 3.8; D 3.83; W 3.6; S 3.44; K 4.12; R 3.08; G 3.56; C 3.56; I 3.24; M 3.51; T 3.66; L 3.09
T14: G 3.49; Y 3.49; H 3.77; K 3.54; I 3.34; L 3.91; N 3.58; P 3.11; W 3.95; A 3.56; V 3.51; Q 3.31; S 3.19; E 3.28; M 2.64; R 3.52; F 2.68; D 3.28; C 3.61
Q20: N 3.66; H 3.12; V 3.54; K 3.7; R 3.59; A 3.38; F 3.15; D 3.35; P 2.98; E 3.04; C 3.6; M 4.04; Y 2.91; G 4.19; T 4.39; W 3.24; I 3.69; S 2.75
V22: Y 2.22; W 3.26; T 3.64; D 3.67; K 3.14; F 3.48; S 4.09; C 3.41; R 2.03; L 3.62; N 3.62; A 3.77; Q 3.39; G 4.39; H 3.75; M 3.42; P 3.87; I 3.78; E 3.31
P21: S 3.13; C 3.36; A 4.07; H 3.41; W 3.45; R 3.31; T 3.86; V 3.31; D 2.71; K 2.75; F 3.37; I 3.16; Q 3.37; G 3.49; Y 3.91; N 3.67; M 3.76; E 3.28
